Entries after “also recorded” stand apart in the source; their conditions may differ. Where two headings read alike, the source gives them in different places.
B1: human sodium dependent multivitamin transporter, hSMVT (Homo sapiens) (protein)
chain: MSVGVSTSAPLSPTSGTSVGMSTFSIMDYVVFVLLLVLSLAIGLYHACRGWGRHTVGELLMADRKMGCLPVALSLLATFQSAVAILGVPSEIYRFGTQYWFLGCCYFLGLLIPAHIFIPVFYRLHLTSAYEYLELRFNKTVRVCGTVTFIFQMVIYMGVVLYAPSLALNAVTGFDLWLSVLALGIVCTVYTALGGLKAVIWTDVFQTLVMFLGQLAVIIVGSAKVGGLGRVWAVASQHGRISGFELDPDPFVRHTFWTLAFGGVFMMLSLYGVNQAQVQRYLSSRTEKAAVLSCYAVFPFQQVSLCVGCLIGLVMFAYYQEYPMSIQQAQAAPDQFVLYFVMDLLKGLPGLPGLFIACLFSGSLSTISSAFNSLATVTMEDLIRPWFPEFSEARAIMLSRGLAFGYGLLCLGMAYISSQMGPVLQAAISIFGMVGGPLLGLFCLGMFFPCANPPGAVVGLLAGLVMAFWIGIGSIVTSMGSSMPPSPSNGSSFSLPTNLTVATVTTLMPLTTFSKPTGLQRFYSLSYLWYSAHNSTTVIVVGLIVSLLTGRMRGRSLNPATIYPVLPKLLSLLPLSCQKRLHCRSYGQDHLDTGLFPEKPRNGVLGDSRDKEAMALDGTAYQGSSSTCILQETSL
B2: SMVT in BBMECs (Bos taurus) (protein)
chain: MSVGLSTATPLPPASDTDVVTSTFSLVDYVVFVLLLVLSLAIGLYHAYRGWGRHSIGQLLLADRKMGCLPVALSLLATFQSAVAILGVPSEIYRFGTQYWFLGCCYFLGLLIPAHVFIPIFYRLHITSAYEYLELRFNKAVRVCGTVTFIFQMVIYMGVVLYAPSLALNAVTGFDLWLSVLTLGIVCTIYTALGGLKAVIWTDVFQTLVMFLGQLAVIIVGSAKVGGLGHVWEVASQHGLISGIELDPDPFVRHTFWTLAFGGVFMMLSLYGVNQAQVQRYLSSRTEKAAVLSCYAVFPCQQVALSMGCLIGLVMFTYYQEYPMSTQQSQAAPDQFVLYFVMDLLRGLPGLPGLFVACLFSGSLSTISSAFNSLATVTMEDLIRPWFPHVSEVRATMLSRIIAFGYGLLCLGMAYISSQMGPVLQAAISIFGMVGGPLLGLFCLGMFFPCANPPGAIVGLLAGLIMAFWIGIGSIVTSMGSGRALSPPNGSSFSLSSNLTAVTMATLMPSTAASKPTGLQRLYSLSYLWYSAHNSTTVIVVGLAVSLLSGGMRGRTVDPRTIYPVLPKLLALLPLSCQKRLPCRAGSQDLSLEACMFPEKMSNGMLRGSRDQVDMAVPEEGPVQPGISPTFILQETSL

Key:
[1] = target: T1, fMLF receptor on differentiated HL-60 cells (Homo sapiens, UniProt P21462); experiment: Competitive receptor binding assay with fML[3H]F; conditions: for Avidity Activation EC50/Kd: ratio of EC50 (calcium) to Kd
T1 construct: endogenous in cells; host or cells: HL-60 cells differentiated with 1.3% DMSO for 48 h; whole cells
T1 sequence (P21462 1-350): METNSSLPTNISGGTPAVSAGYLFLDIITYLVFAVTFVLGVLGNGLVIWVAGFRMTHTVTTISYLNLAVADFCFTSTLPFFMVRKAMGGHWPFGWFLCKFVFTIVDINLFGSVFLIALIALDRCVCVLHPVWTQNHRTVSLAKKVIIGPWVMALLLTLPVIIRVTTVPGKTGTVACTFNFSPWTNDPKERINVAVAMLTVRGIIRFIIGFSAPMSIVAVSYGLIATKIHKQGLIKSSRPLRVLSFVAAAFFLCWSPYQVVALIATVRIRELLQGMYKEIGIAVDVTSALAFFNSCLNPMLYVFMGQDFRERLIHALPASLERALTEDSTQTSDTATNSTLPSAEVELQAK

[2] = tested on: differentiated HL-60 cells; experiment: Intracellular calcium assay (45Ca release from intracellular stores); type: cell-based, human; conditions: for EC50: differentiated HL-60 cells, calcium release, read-out: Cell Activation EC50
Method: Intracellular Calcium Assay. HL-60 cells (2×10^5 cells/mL) were grown in the presence of 1.3% DMSO for 5 days. For each time course experiment, 2×10^6 cells were resuspended in 5 mL of HBSS containing 2 mCi/mL of ^45CaCl2 as the sole source of calcium. After 90 min incubation at 37° C., cells were washed twice as above with cold HBSS. […] Cell pellets were treated with 0.5% Triton X-100/0.1 M NaOH and centrifuged in tubes containing 0.3 mL of 10% sucrose and radioactivity associated with the pellets was measured; this represents vesicle-associated ^45Ca. The top portion of the tube, which contained the cytoplasmic ^45Ca was also measured.

[3] = in vitro; conditions: human, Caco-2
Method: (§1) Caco-2 Cell Transport Studies An Ussing-type diffusion chamber system (Harvard Apparatus, Natick, Mass.) was used to perform transport studies. The apical solution was a MES Ringer's buffer (pH 6.5) consisting of 114.0 mM NaCl, 5.0 mM KCl, 1.1 mM MgSO4, 1.25 mM CaSO4, and 15 mM 2-(N-morpholino)ethanesulfonic acid (MES). The basolateral solution was a Ringer's buffer (pH 7.4) consisting of 114.0 mM NaCl, 5.0 mM KCl, 1.65 mM Na2HPO4, 0.3 mM NaH2PO4, 25 mM NaHCO3, 1.1 mM MgSO4, and 1.25 mM CaSO4. Both buffers contained 25 mM glucose and were adjusted to 290 mOsm/kg using a vapor pressure osmometer (Wescor Inc, Logan, Utah). For transport experiments using filters with cell monolayers, the inserts were rinsed with Ringer's buffet containing 25 mM glucose three times over a 20 min period at room temperature. The TEER was measured for each monolayer before it was mounted onto the diffusion chamber, which was pre-warmed to 37° C. by placement on the heating blocks. The volume of each half-chamber was 5 ml and the surface area of the Snapwell™ filters available for drug transport was 1 cm^2. […] The donor solution consisted of radiolabeled permeant in the apical buffer [apical (AP) to basolateral (BL) study]. Starting at 30 min, samples were taken from the receptor chamber every 15 min until the end of the experiment (105 min). A minimum of three monolayers was used to determine the permeability of test compound in each study and sample analysis was performed using scintillation counting (Perkin Elmer, Gaithersburg, Md.).
(§2) The Michaelis-Menten kinetic parameters of Caco-2 and CHO cell transport were then estimated using non-linear regression.
(§3) Prior to experimentation, diffusion chambers mounted with the Snapwells™ containing Caco-2 cells were equilibrated at 5° C., 10° C., 15° C., 25° C. and 37° C.
(§4) [formula] where Pe is the effective permeability of the substrate transported, Cs is the substrate concentration and Pm and Pc represent the passive and carrier-mediated component of the permeability. All data were initially fitted to a 3-parameter model (Pc, Pm, Km for Caco-2 studies, Jmax, Pm, Km for CHO studies).
(§5) Caco-2 Cell Transport Studies An Ussing-type diffusion chamber system (Harvard Apparatus, Natick, Mass.) was used to perform transport studies. The apical solution was a MES Ringer's buffer (pH 6.5) consisting of 114.0 mM NaCl, 5.0 mM KCl, 1.1 mM MgSO4, 1.25 mM CaSO4, and 15 mM 2-(N-morpholino)ethanesulfonic acid (MES). The basolateral solution was a Ringer's buffer (pH 7.4) consisting of 114.0 mM NaCl, 5.0 mM KCl, 1.65 mM Na2HPO4, 0.3 mM NaH2PO4, 25 mM NaHCO3, 1.1 mM MgSO4, and 1.25 mM CaSO4. Both buffers contained 25 mM glucose and were adjusted to 290 mOsm/kg using a vapor pressure osmometer (Wescor Inc, Logan, Utah). For transport experiments using filters with cell monolayers, the inserts were rinsed with Ringer's buffer containing 25 mM glucose three times over a 20 min period at room temperature. The TEER was measured for each monolayer before it was mounted onto the diffusion chamber, which was pre-warned to 37° C. by placement on the heating blocks.

[4] = tested on: Caco-2 cell monolayers; experiment: Absorptive (AP to BL) transport across Caco-2 cell monolayers; conditions: Caco-2 AP to BL
Method: as §1, §2, §3, §4, §5

[5] = target: T2, SMVT in BBMECs (Bos taurus, UniProt A1L530); experiment: Biotin uptake by BBMECs (characterization of biotin transporter); type: in vitro ADME, bovine
T2 construct: endogenous in cells; host or cells: primary bovine brain microvessel endothelial cells (BBMECs)
T2 sequence (A1L530 1-638): B2 chain

[6] = target: T3, SMVT (Homo sapiens, UniProt Q9Y289); experiment: Inhibition of substrate uptake in CHO/hSMVT cells by 50 μM SMVT substrates; type: in vitro ADME; parameters: expressed in transfected cells; host or cells: CHO cells (ATCC), transient Lipofectamine transfection; plasmid was a gift of Dr. Puttur D. Prasad; conditions: for inhibition of RI-K(biotin)-Tat9 uptake: 0.1 μM RI-K(biotin)-Tat9, inhibitor 50 μM; for inhibition of biotin-PEG-3400 uptake: 0.1 μM biotin-PEG-3400, inhibitor 50 μM; for inhibition of PEG:(RI-K(biotin)-Tat9)8 uptake: 0.1 μM conjugate, inhibitor 50 μM
T3 sequence (Q9Y289 1-635): B1 chain

[7] = substrate: O=C(O)CCCC[C@@H]1SC[C@@H]2NC(=O)N[C@@H]21; experiment: cells, lysate or membranes named; conditions: 37° C.
[8] = Kd multiplied by average number of fMLF moieties, read-out: Relative Avidity Kd/fMLP
[9] = differentiated HL-60 cells, competition with fML[3H]F, read-out: Avidity Kd

Row | Molecule | Kd [1, 8] | Kd [1, 9] | Avidity Activation EC50/Kd [1] | EC50 [2] | inhibition of biotin uptake [5] | other results
1 | B3-PEG-fMLF3: 3-arm branched amino-PEG fully coupled with fMLF | 5.7 nM | 1.9 nM | 5.05 | 9.6 nM |  | 
2 | B8-PEG-fMLF5.5: 8-arm branched amino-PEG with on average 5.5 fMLF residues per polymer | 2.75 nM | 0.5 nM | 10.6 | 5.3 nM |  | 
3 | B8-PEG-fMLF8: 8-arm branched amino-PEG with 8 fMLF residues per polymer | 1.44 nM | 0.18 nM | 27.8 | 5 nM |  | increase in avidity over B8-PEG-fMLF1.1 [1]: more than 1000 fold; fMLF receptors occupied ([1]; at 1 nM): ~100%; cellular activation ([2]; at 1 nM): little or no cellular activation
4 | B4-PEG-fMLF4: 4-arm branched amino-PEG fully coupled with fMLF | 3.2 nM | 0.8 nM | 6.25 | 5 nM |  | 
5 | OC[C@@H](O)[C@@H](O)[C@H](O)[C@H](O)CO [mannitol] |  |  |  |  |  | Papp A→B at 105 min [3]: 2.12 ×10⁻⁶ cm/s; absorptive/effective permeability (Pe) [4]: 1.42 (±0.28)×10^−6 cm/sec
6 | CC(C)(CO)[C@@H](O)C(=O)NCCC(=O)O [pantothenic acid] |  |  |  |  | inhibited the uptake of biotin significantly | inhibition of RI-K(biotin)-Tat9 uptake [6]: significantly inhibited; inhibition of biotin-PEG-3400 uptake [6]: significantly (p<0.01) inhibited; inhibition of PEG:(RI-K(biotin)-Tat9)8 uptake [6]: significantly lower (p<0.05)
7 | N=C1N[C@H]2[C@H](CS[C@H]2CCCCC(=O)O)N1 [iminobiotin] |  |  |  |  | very weak | 
8 | PEG/A-fMLF4: linear PEG-aspartate copolymer (29 kDa) with four fMLF residues | 4.4 nM | 1.1 nM |  |  |  | 
9 | C[C@@H]1NC(=O)N[C@@H]1CCCCCC(=O)O [desthiobiotin] |  |  |  |  | inhibited the uptake of biotin significantly | inhibition of RI-K(biotin)-Tat9 uptake [6]: significantly inhibited; also recorded: significantly lowered (p<0.001); inhibition of biotin-PEG-3400 uptake [6]: significantly (p<0.01) inhibited; inhibition of PEG:(RI-K(biotin)-Tat9)8 uptake [6]: significantly lower (p<0.05)
10 | N[C@@H]1[C@H](CCCCC(=O)O)SC[C@@H]1N [diaminobiotin] |  |  |  |  | very weak | 
11 | B8-PEG-fMLF1.1: 8-arm branched amino-PEG with on average 1.1 fMLF residues per polymer | 209 nM | 190 nM |  |  |  | calcium flux ([2]; even at 100 nM polymer): virtually no flux of calcium
12 | B1 |  |  |  |  |  | Km ([7]; other: uptake in CHO/hSMVT cells, 10 min, pH 7.5): 1.39 (0.59) μM
13 | B2 |  |  |  |  |  | Km ([7]; other: BBMECs): 54.6 µM
